Target: tissue plasminogen activator (UniProt P00750 36-562, limits assumed)
Assay: cell-based or functional assay

Sequence of tissue plasminogen activator (P00750 36-562 limits assumed): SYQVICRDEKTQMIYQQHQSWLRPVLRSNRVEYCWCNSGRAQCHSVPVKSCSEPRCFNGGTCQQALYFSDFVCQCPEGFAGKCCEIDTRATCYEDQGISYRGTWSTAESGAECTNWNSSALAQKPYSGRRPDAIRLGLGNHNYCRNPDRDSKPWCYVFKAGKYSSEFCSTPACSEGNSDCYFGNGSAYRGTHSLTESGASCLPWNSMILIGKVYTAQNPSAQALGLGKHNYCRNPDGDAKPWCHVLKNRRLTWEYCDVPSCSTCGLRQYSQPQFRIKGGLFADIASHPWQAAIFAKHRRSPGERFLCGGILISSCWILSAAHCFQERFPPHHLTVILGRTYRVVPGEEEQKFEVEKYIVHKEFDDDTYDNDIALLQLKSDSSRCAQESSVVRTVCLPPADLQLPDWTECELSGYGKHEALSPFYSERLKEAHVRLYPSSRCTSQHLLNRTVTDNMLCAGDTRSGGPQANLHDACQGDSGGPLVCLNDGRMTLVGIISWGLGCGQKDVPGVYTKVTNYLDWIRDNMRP

B1: pancreas-derived plasminogen activator inhibitor (PAPAI) protein (other)
chain: SRCSAQKNTEFAVDLYQEVSLSHKDNIIFSPLGITLVLEMVQLGAKGKAQQQIRQTLKQQETSAGEEFLVLKSFCSAISEKKQEFTFNLANALYLQEGFTVKEQYLHGNKEFFQSAIKLVDFQDAKACAEMISTWVERKTDGKIKDMFSGEEFGPLTRLVLVNAIYFKGDWKQKFRKEDTQLINFTKKNGSTVKIPMMKALLRTKYGYFSESSLNYQVLELSYKGDEFSLIIILPAEGMDIEEVEKLITAQQILKWLSEMQEEEVEISLPRFKVEQKVDFKDVLYSLNITEIFSGGCDLSGITDSSEVYVSQVTQKVFFEINEDGSEAATSTGIHIPVIMSLAQSQFIANHPFLFIMKHNPTESILFMGRVTNPDTQEIKGRDLDSL
anti-tPA activity (plasminogen activator inhibitory activity) of concentrated conditioned media: 3 fold over PAPAI negative clones

Source: patent US6893870 (Human Genome Sciences, dated 2005)
